A short description of this series: protein stability index of a GFP-peptide fusion (GPS, HEK-293T) (PSI 1-6); higher = more stable.
The mark [1] stands for this setting: treatment: DMSO, c terminus: a fixed tail appended.
The mark [2] stands for this setting: treatment: MLN4924 1 uM, 8 h, c terminus: a fixed tail appended.

± gives the standard deviation.
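Further: 24-mer peptide tiles fused after GFP, lentivirally expressed, FACS-sorted into six equal bins by GFP/DsRed ratio, decoded by Illumina sequencing, PSI is the read-weighted mean bin number.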

As to LTDDDVVDWDEEYPPQMGEEYSQI [BTBD10], the protein stability index reads like this: under setting [1], 5.15 ± 0.11; under setting [2], 5.22 ± 0.19.
For the sequence LTINPAKRITAHEALKHPWVCQRS [CAMK2B], the protein stability index by setting is: under setting [1], 2.55 ± 0.29; under setting [2], 2.95 ± 0.16.
The matching figures for LTNIWMARTCAKQNINAPAPATTS [C22orf31]: 2.51 ± 0.27 and 2.59 ± 0.15.
For LTNSEYRSEQSVKLRRQVIQVVLN [ZER1], in that order: 2.51 ± 0.23 and 2.44 ± 0.48.
The matching figures for LTVVCAAGAEPLPRNGDQWHEIRQ [WEE1]: 2.55 ± 0.34 and 2.49 ± 0.4.
Regarding LTYENVERWLKELRDHADSNIVIM [RAB11A], the protein stability index reads like this: under setting [1], 2.21 ± 0.34; under setting [2], 2.75 ± 0.3.
For LVEETSCQQNMIQELIETNQQLRN [CEP70], in that order: 4.3 ± 0.24 and 4.41 ± 0.3.
Take LVGNKSDLRHLRAVPTDEARAFAE [RAB11A]: the protein stability index runs as follows: under setting [1], 4.29 ± 0.34; under setting [2], 4.39 ± 0.21.
With LVPETEDDRKLAALLKFHTLDSYE [YJU2B], the protein stability index reads like this: under setting [1], 3.62 ± 0.34; under setting [2], 3.58 ± 0.22.
For LVVLRFLTMNSEDERRDAEERASL [KCNK9], in that order: 2.68 ± 0.15 and 2.62 ± 0.28.
As to LVYLGDLSRYQNELAGVDTELLAE [SMG5], the protein stability index amounted to 2.51 ± 0.2 under setting [1] and 2.74 ± 0.11 under setting [2].
With LWLTASQPCSIVDVEFLPVYHPSP [LPCAT4], the protein stability index is 3.02 ± 0.74 under setting [1] and 2.53 ± 0.37 under setting [2].
Turning to LYLLSGSIIAVAMQRGARLPAEVA [POMT2], the protein stability index runs as follows: under setting [1], 2.81 ± 0.38; under setting [2], 3.21 ± 0.77.
The matching figures for LYSQLLQAYKWSNKLQYHAGLASG [MED27]: 3.28 ± 0.55 and 2.67 ± 0.71.
Regarding MAAAEPSPRRVGFVGAGRMAGAIA [PYCR3], the protein stability index under setting [1] worked out at 2.97 ± 0.079 and the protein stability index under setting [2] is 3.38 ± 0.073.
For MAALSRALGPLRTPAPPLWIGLFL, in that order: 2.35 ± 0.26 and 2.28 ± 0.63.
The matching figures for MAGNFWQSSHYLQWILDKQDLLKE [CCNC]: 2.34 ± 0.32 and 2.57 ± 0.38.
Regarding MALEPNTTFLRKSLKAALKHLGP [FANCE], the protein stability index runs as follows: (treatment: DMSO, c terminus: native) 2.48 ± 0.25; (treatment: MLN4924 1 uM, 8 h, c terminus: native) 2.33 ± 0.17.
For the sequence MASSSTVPLGFHYETKYVVLSYLG [BCL2L13], the protein stability index by setting is: under setting [1], 2.64 ± 0.48; under setting [2], 2.33 ± 0.45.
For MATRSSDWLRRPLGEDNQPETQLF [TLE6], the protein stability index runs as follows: under setting [1], 3.91 ± 0.1; under setting [2], 3.87 ± 0.1.
The matching figures for MDVERQETPEWLDSDSCQKCDQPF [WDFY2]: 5.11 ± 0.25 and 5.08 ± 0.15.
As to MEAPGLAQAAAAESDSRKVAEETP [PRKX], the protein stability index by setting is: under setting [1], 5.56 ± 0.38; under setting [2], 5.54 ± 0.31.
Take MEPAVSEPMRDQVARTHLTEDTPK [NSDHL]: the protein stability index runs as follows: under setting [1], 5.57 ± 0.16; under setting [2], 5.51 ± 0.22.
For MESKEKRAVNSLSMENANQENEEK [BEX1], in that order: 5.5 ± 0.25 and 5.52 ± 0.23.
In the case of MFTSELSEKGKPYVDIQGLTASTM [KLHL12], the protein stability index reads like this: under setting [1], 2.54 ± 0.31; under setting [2], 2.88 ± 0.46.
Take MGGAVSAGEDNDDLIDNLKEAQYI [PCMTD1]: the protein stability index reads like this: under setting [1], 4.82 ± 0.086; under setting [2], 4.64 ± 0.17.
The matching figures for MGSSQATMTSSQSMNFSMMSTNTV [CLINT1]: 3.28 ± 0.27 and 3.64 ± 0.25.
The matching figures for MGSTESSEGRRVSFGVDEEERVRV [CHCHD6]: 5.15 ± 0.29 and 5.22 ± 0.13.
With MLIFWTITLFLLGAAKGKEVCYED [PNLIPRP1], the protein stability index by setting is: under setting [1], 3.72 ± 0.18; under setting [2], 3.3 ± 0.69.
For MLQIVVGVRDSGSPPLHANTSLHV [PCDHGC5], in that order: 2.6 ± 0.47 and 2.91 ± 0.72.
In the case of MLSIFYFAIPVGSGLGYIAGSKVK [SPNS1], the protein stability index runs as follows: under setting [1], 2.83 ± 0.34; under setting [2], 3.05 ± 0.4.
MMKPQAETGEAARDPSLRPARTVL displayed a protein stability index under setting [1] of 4.18 ± 0.13 and a protein stability index under setting [2] of 4.33 ± 0.13.
The matching figures for MMSVNGQAKTHTDSSEKELEPEAA [ACBD3]: 5.45 ± 0.21 and 5.38 ± 0.23.
The matching figures for MNEVEKTMEYSMVGRTVLDMLIRE [RSPH3]: 2.59 ± 0.56 and 2.16 ± 0.22.
As for MQELTEMLGFRPYRFYFYMWKFVS [SLC6A17], the protein stability index reads like this: under setting [1], 2.39 ± 0.21; under setting [2], 2.35 ± 0.35.
For MQNLNDRLASYLDKVRALEEANAD [KRT15], in that order: 4.22 ± 0.32 and 4.37 ± 0.23.
For MQPPPPGPLGDCLRDWEDLQQDFQ [TMEM120A], in that order: 4.86 ± 0.2 and 4.66 ± 0.2.
For MRLSKTLVDMDMADYSAALDPAYT [HNF4A], in that order: 2.86 ± 0.28 and 3.08 ± 0.25.
MRTGQNTWESKNILAVSFAPLVQP [PCMTD1]: the protein stability index under setting [1] came out at 2.84 ± 0.65 and the protein stability index under setting [2] amounted to 2.71 ± 0.46.
For MVHQRKLEAELLQIEERHQEKKRK [SMARCE1], in that order: 4.58 ± 0.34 and 4.36 ± 0.32.
For MVPHNLETTERMKCLYYLYATLDL [PDS5B], in that order: 2.14 ± 0.29 and 2.16 ± 0.38.
For MWGQSLLPPVSTSFTTGGLRIPFP [TNXB], in that order: 2.3 ± 0.41 and 2.42 ± 0.16.
For MYHYLQFAYYKLNDVRQAARSAAS [P3H4], the protein stability index amounted to 2.05 ± 0.42 under setting [1] and 2.33 ± 0.37 under setting [2].
MYSVEITVEKDKVTGETRVLSSTT [PALM]: the protein stability index runs as follows: under setting [1], 2.93 ± 0.21; under setting [2], 3.19 ± 0.16.
For NATDPDEGTNGQLDYSFGDHTSEA [PCDHGC5], in that order: 5.45 ± 0.32 and 5.24 ± 0.12.
For NCKPLKSYMLQDSLEHVQLFDLMR [CLK3], in that order: 2.11 ± 0.31 and 2.25 ± 0.35.
With NDRLYAIGGNHLKGFSHLDVMLVE [KLHL14], the protein stability index is, setting by setting: under setting [1], 2.35 ± 0.33; under setting [2], 2.58 ± 0.17.
The matching figures for NELVKCIEELCQKREELCRQIQEE [SSNA1]: 3.62 ± 0.33 and 3.76 ± 0.26.
Turning to NERDSSEPGNFIPLFTPQSPVTAT [CDC25A], the protein stability index is, setting by setting: under setting [1], 4.65 ± 0.48; under setting [2], 4.65 ± 0.33.
With NFCHIHNCIHRDIKPENILITKQG [CDKL4], the protein stability index is, setting by setting: under setting [1], 2.53 ± 0.067; under setting [2], 2.74 ± 0.43.
The matching figures for NGCRSGEIFAIDLRCGNQGKGWKA [DCAF4]: 2.31 ± 0.35 and 2.2 ± 0.29.
The matching figures for NGTKADGKDAKTTNGHGGEAAEGK [TRIM29]: 5.48 ± 0.2 and 5.55 ± 0.12.
The matching figures for NIMGIENICELAARMLFSAVEWAR [NR2F2]: 3.04 ± 0.18 and 2.79 ± 0.25.
For the sequence NKKRGWRRLAQEPLGLEVDQFLED [NOP53], the protein stability index turned out to be 4.45 ± 0.35 under setting [1] and 4.34 ± 0.18 under setting [2].
NLDTEELCEYFSQHLGEYENVLAA [NECAB1] yielded a protein stability index under setting [1] of 2.83 ± 0.32 and a protein stability index under setting [2] of 3.3 ± 0.66.
Sequence NLKNDGRQVEKRRNSGPVVEKLKQ [MMP1] had a protein stability index under setting [1] of 4.58 ± 0.24 and a protein stability index under setting [2] of 4.41 ± 0.49.
The matching figures for NLRLQRKLQREMERREALCRQLSE [CCDC6]: 3.52 ± 0.27 and 3.63 ± 0.43.
On to NMTQDEFKSLFGSIGDIESCKLVR [ELAVL3], for which the protein stability index is 3.28 ± 0.15 under setting [1] and 3.33 ± 0.46 under setting [2].
The matching figures for NQWETPPEDLQTDLAKLVDQQNPT [ZNF449]: 5.36 ± 0.21 and 5.29 ± 0.26.
The matching figures for NRFRVEISFHFEVTNHNIRLFEDV [TRIM43]: 2.73 ± 0.5 and 2.84 ± 0.22.
Turning to NRRMVGPDVIPLPHIYGARIKGVE [FAM189A2], the protein stability index is 3.19 ± 0.11 under setting [1] and 3.15 ± 0.27 under setting [2].
As for NSQNEVNGWTCLHWACKRNHGQVV [ANKRD40], the protein stability index is, setting by setting: under setting [1], 2.57 ± 0.24; under setting [2], 2.65 ± 0.24.
For NTCSVITTLKGHEGSVACLWWDPI [WDFY1], in that order: 2.09 ± 0.39 and 2.34 ± 0.46.
Consider NTEERQKRQVTHFQFLSWPDYGVP [PTPN9], for which the protein stability index was determined as 3.17 ± 0.57 under setting [1] and 3.042 ± 0.028 under setting [2].
The matching figures for NTNVLSRDLIPPHVNFSHLTTKDY [SLC6A17]: 3.49 ± 0.37 and 3.87 ± 0.12.
Consider NVNVTLLSKQAKFAYKDEYEKFKL [TMEM120A], for which the protein stability index by setting is: under setting [1], 2.9 ± 0.15; under setting [2], 2.82 ± 0.23.
As to NVPVDDSLVKELLRMCSHGEGKIN [EFHC1], the protein stability index under setting [1] was 3.39 ± 0.2 and the protein stability index under setting [2] was determined as 3.55 ± 0.11.
The matching figures for NYGGVIKNYFQHREFSFTLKDDIY [PRIM1]: 2.13 ± 0.2 and 2.25 ± 0.08.
With NYYRTWNVVVHDWLYYYAYKDFLW [SOAT1], the protein stability index under setting [1] was determined as 3.73 ± 0.5 and the protein stability index under setting [2] amounted to 2.94 ± 0.34.
For PADSFESPLTLAACGGHVELAALL [ANKRD17], in that order: 2.87 ± 0.32 and 3.14 ± 0.28.
For PEEVKSLDSNGAGEKSENNSSNSD [BCL2L13], in that order: 5.84 ± 0.15 and 5.6 ± 0.23.
The matching figures for PENLLLASKSKGAAVKLADFGLAI [CAMK2D]: 2.53 ± 0.38 and 2.13 ± 0.18.

The record behind these values is the supplement of paper PMC10567573.
